Laboratory results: patent US20070020687A1 (CYTOSKELETON, published 2007)

B1: PAK-GBD-GST peptide (other)
chain: KEKERPEISLPSDFEHTIHVGFDAVTGEFTGMPEQWARLLQTSNITKSEQKKNPQAVLDVLEFYNSKKTSNSQKYMSFTDKSAEC
notes: range 68-151; also called PAK1-GST; PAK-GST; not shown: Glutathione S transferase tag of vector pGEX-4T with thrombin site, N-terminal
B2: ROCK1 effector-GBD peptide, histidine tagged, with engineered carboxy terminal cysteine (other, human)
chain: EAEQYFSTLYKTQVKELKEEIEEKNRENLKKIQELQNEKETLATQLDLAETKAESEQLARGLLEEQYFELTQESKKAASRNRQEITDKDHTVSRLEEANSMLTKDIEILRRENEELTEKMKKAEEEYKLEKEEEISNLKAAFEKNINTERTLKTQAVNKLAEIMNRKDFKIDRKKANTC
notes: range 847-1024; Linked covalently to maleimide plates through the C-terminal cysteine; also called ROCK1-GBD; ROCK-GBD; not shown: N-terminal histidine tag of vector pRSET-A
B3: rhotekin-Cys effector-GBD as tested in the G-LISA (other, mouse)
chain: ILEDLNMLYIRQMALSLEDTELQRKLDHEIRMRDGAEKLLAALSQREQALEATKSLLVSNSRILSYMGELQRRKEAQVLEKTGC
notes: range 7-89; also called modified effector-GBD; Rhotekin-Cys-no tag
B4: POSH effector-GBD peptide, histidine tagged (other)
chain: KHSDTKKNTKKRHSFTSLTMANKSSQASQNRHSMEISPPVLISSSNPTAAARISELSGLSCSAPSQVHISTTG
notes: range 291-363; Linked to maleimide plates through the naturally occurring cysteine at position 351; also called POSH-GBD; POSH-His; not shown: N-terminal histidine tag of vector pRSET-A
B5: WASP effector-GBD peptide, histidine tagged, with engineered carboxy terminal cysteine (other, human)
chain: DIQNPDITSSRYRGLPAPGPSPADKKRSGKKKISKADIGAPSGFKHVSHVGWDPQNGFDVNNLDPDLRSLFSRAGISEAQLTDAETSKLIYDFIEDQGGLEAVRQEMRRQEPLPPPPPPSRC
notes: range 201-321; Linked covalently to maleimide plates; also called WASP-GBD; WASP-His; not shown: N-terminal histidine tag of vector pRSET-A
B6: constitutively active recombinant Cdc42, glutamine 61 to leucine, histidine tagged (enzyme)
chain: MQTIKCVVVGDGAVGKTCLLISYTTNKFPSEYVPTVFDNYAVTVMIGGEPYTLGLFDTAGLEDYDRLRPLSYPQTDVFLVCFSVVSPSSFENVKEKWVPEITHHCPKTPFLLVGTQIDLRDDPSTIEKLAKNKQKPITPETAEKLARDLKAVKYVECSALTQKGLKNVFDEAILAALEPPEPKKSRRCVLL
notes: Bought protein; also called Cdc42 (61L); constitutively active Cdc42; not shown: histidine tag
B7: ROCK-GST peptide (other)
chain: EAEQYFSTLYKTQVKELKEEIEEKNRENLKKIQELQNEKETLATQLDLAETKAESEQLARGLLEEQYFELTQESKKAASRNRQEITDKDHTVSRLEEANSMLTKDIEILRRENEELTEKMKKAEEEYKLEKEEEISNLKAAFEKNINTERTLKTQAVNKLAEIMNRKDFKIDRKKANT
notes: domain: GBD; a GST fusion of ROCK is described nowhere else; also called ROCK-GBD; RhoA effector ROCK-GBD; not shown: Glutathione S transferase tag

Tests used:
[1] = molecular target: T1, constitutively active recombinant Rac1, glutamine 61 to leucine, histidine tagged (Homo sapiens (Human), UniProt P63000 1-192); assay: Rac1 G-LISA, PAK-GBD-GST on glutathione plate, absorbance 490 nm
Method: (§1) Active Rho protein (typically 7-15 μg total cell lysate or 1-5 ng of constitutively active recombinant protein) were either added directly to the effector bound G-LISA plate (Rac1 and Cdc42 G-LISAs) or diluted with an equal volume of Binding Buffer (20% PEG 8000, Sigma, St. Louis, Mo.) prior to adding to effector bound plates (RhoA G-LISA). The reactions were incubated for 30 minutes at 4° .C on a microtiter titer plate shaker after which wells were washed once with 200 μl of PBST (PBS pH 7.2, 0.05% Tween-20) and immediately treated with 200 μl of Antigen Presenting Buffer (1% trichloroacetic acid (TCA)) for 2-5 minutes at room temperature. […] For RhoA and Rac1 reactions goat anti-mouse secondary at 2 μg/ml is used, for RhoA,B,C reactions donkey anti-chicken secondary at 0.5 μg/ml is used, for Cdc42 reactions goat anti-sheep secondary antibody is used at 0.5 μg/ml. After three washes each of 200 μl PBST the activated Rho proteins are detected using absorbance or luminescence detection as described below.
(§2) Plates were incubated at room temperature for 1 hour. Plates were washed twice in PBS and blocked by addition of 0.1% BSA in PBS pH 7.2 for 1 hour at room temperature.

[2] = molecular target: T2, endogenous Rac1 of human platelet extract loaded with GTPγS (human, UniProt P63000 1-189); assay: Rac1 G-LISA, PAK-GBD-GST on glutathione plate, loaded platelet extracts, absorbance 490 nm
Method: For RhoA and Rac1 reactions goat anti-mouse secondary at 2 μg/ml is used, for RhoA,B,C reactions donkey anti-chicken secondary at 0.5 μg/ml is used, for Cdc42 reactions goat anti-sheep secondary antibody is used at 0.5 μg/ml. After three washes each of 200 μl PBST the activated Rho proteins are detected using absorbance or luminescence detection as described below.
as §2

[3] = molecular target: T1, constitutively active recombinant Rac1, …; assay: competition in Rac1: POSH G-LISA, 5 ng Rac1 (61L), POSH-GBD maleimide plate, PAK-GBD-GST at 0 to 10 µM
[4] = molecular target: active Rac1, sample not stated (Homo sapiens (Human), UniProt P63000 1-189); assay: G-LISA with and without TCA Antigen Presenting Buffer
[5] = molecular target: T3, endogenous RhoA of human platelet extract loaded with GTPγS (human, UniProt P61586 1-190); assay: RhoA G-LISA on ROCK-GBD maleimide plate, 15 µg GDP or GTPγS loaded platelet extract, Binding Buffer, luminometry
T3 construct: also called active RhoA (GTPγS); GTPγS RhoA
T3 sequence (P61586 1-190 limits assumed): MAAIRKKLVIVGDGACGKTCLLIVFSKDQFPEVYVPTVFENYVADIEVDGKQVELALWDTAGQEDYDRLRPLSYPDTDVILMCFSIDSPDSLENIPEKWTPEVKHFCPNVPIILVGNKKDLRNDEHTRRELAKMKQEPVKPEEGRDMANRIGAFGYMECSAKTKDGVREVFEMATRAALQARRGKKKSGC
Method: as §1

[6] = molecular target: T4, constitutively active recombinant RhoA, glutamine 63 to leucine, histidine tagged (Homo sapiens (Human), UniProt P61586 1-193, limits assumed); assay: RhoA G-LISA, ROCK1-GBD on maleimide plate, detection with anti-RhoA clone 384, luminometry
T4 construct: Bought protein; unable to hydrolyse GTP; also called RhoA (63L); R63; not shown: histidine tag
T4 sequence (P61586 whole entry Q63L): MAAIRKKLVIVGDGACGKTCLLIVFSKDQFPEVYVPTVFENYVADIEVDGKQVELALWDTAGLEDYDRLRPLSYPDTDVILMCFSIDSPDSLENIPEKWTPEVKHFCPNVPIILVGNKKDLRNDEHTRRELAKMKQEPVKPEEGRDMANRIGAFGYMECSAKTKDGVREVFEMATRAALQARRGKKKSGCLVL
Method: as §1, with “The” for “Active Rho protein (typically 7-15 μg total cell lysate or 1-5 ng of constitutively active recombinant protein) were either added directly to the effector bound G-LISA plate (Rac1 and Cdc42 G-LISAs) or diluted with an equal volume of Binding Buffer (20% PEG 8000, Sigma, St. Louis, Mo.) prior to adding to effector bound plates (RhoA G-LISA). The”

[7] = molecular target: T3, endogenous RhoA of human platelet …; assay: RhoA G-LISA on ROCK plate, loaded platelet extracts, treatment with 10% TCA for 2 minutes, detection with clone 384, luminescence
Method: Platelet cell lysates loaded with GTPγS or GDP nucleotides (10 μg total cell lysate per assay) were diluted with an equal volume of Binding Buffer (20% PEG 8000, Sigma, St. Louis, Mo.) prior to adding to ROCK effector bound plates. The reactions were incubated for 30 minutes at 4° C. on a microtiter titer plate shaker after which wells were washed once with 200 μl of PBST (PBS pH 7.2, 0.05% Tween-20) and immediately treated with one of the following chemical/physical treatments: microwaving for 3 minutes in the presence of 200 μl PBS; microwaving for 3 minutes dry; microwaving for 3 minutes in the presence of 200 μl of 8M urea; 200 μl methanol for 2 minutes; 200 pl ethanol for 2 minutes; 200 μl of 0.5% SDS for 2 minutes, 200 μl of 10% trichloroacetic acid (TCA) for 2 minutes at room temperature. […] After three washes each of 200 μl PBST, the activated Rho proteins were detected using luminescence detection. Luminescence was measured in a SpectroFluor Plus (Techan Inc.) after addition of 50 μl of lumigen reagent (Lumigen Inc., Catalog # PSA-100).
After extract incubation, the plate was treated with MW+PBS, MW/Dry, MW/8 M urea, methanol, ethanol, 0.5% SDS, 10% TCA or no treatment followed by antibody incubation and luminescence detection. […]

[8] = molecular target: active RhoA, sample not stated (Homo sapiens (Human), UniProt P61586 1-190, limits assumed); assay: G-LISA with and without TCA Antigen Presenting Buffer
active RhoA, sample not stated, sequence (P61586 1-190 limits assumed): as the sequence (P61586 1-190 limits assumed) above

[9] = molecular target: T4, constitutively active recombinant RhoA, …; assay: G-LISA with rhotekin-Cys effector-GBD on plate, data not shown
[10] = molecular target: T1, constitutively active recombinant Rac1, …; assay: Rac1 G-LISA, POSH-GBD on maleimide plate, detection with anti-Rac1 GL06, absorbance 490 nm
Method: as §1

[11] = molecular target: T1, constitutively active recombinant Rac1, …; assay: Rac1 G-LISA on POSH plate with 2 minute Antigen Presenting Buffer (1% TCA), absorbance 490 nm
Method: The reactions were incubated for 30 minutes at 4° C. on a microtiter titer plate shaker after which wells were washed once with 200 μl of PBST (PBS pH 7.2, 0.05% Tween-20) and immediately treated with 200 μl of Antigen Presenting Buffer (1% trichloroacetic acid (TCA)) for 2-5 minutes at room temperature. Wells were then washed three times with 200 μl each of PBST and primary Rac1 antibody was added at 1 μg/ml and incubated at room temperature for 45 minutes. Wells were washed three times with 200 μl each of PBST and incubated with anti-mouse secondary antibody for 45 minutes at room temperature. After three washes each of 200 μl PBST, the activated Rho proteins were detected using absorbance detection. Absorbance was measured at OD₄₉₀ in a spectrophotometer (SpectraMax 250, Molecular Devices) after addition of 50 μl of OPD substrate (Sigma Catalog # P9187) for 15 minutes at 37° C. followed by addition of 50 μl of stop buffer (1M sulfuric acid).
Referring to FIG. 5B, lysis buffer only (Blank) or 5 ng of Rac1 (61L) were subjected to Rac1 G-LISA assay as described in the materials and methods except that the assays were performed either with or without Antigen Presenting Buffer treatment (1% TCA or No APB respectively) Rac1 signal was detected by absorbance at 490 nm as described in the materials and methods.

[12] = molecular target: T2, endogenous Rac1 of human platelet …; assay: Rac1 G-LISA on POSH-GBD maleimide plate, GDP or GTPγS loaded platelet extract, absorbance 490 nm
Method: as §1

[13] = molecular target: B6; assay: Cdc42 G-LISA, WASP-GBD on maleimide plate, detection with anti-Cdc42 ACD02, absorbance 490 nm
Method: as §1
(§3) Referring to FIG. 2C, lysis buffer only (Blank), 5 ng of Cdc42 (61L) or Rac1 (61L) were subjected to a Cdc42 G-LISA assay as detailed in materials and methods (Example 2), and Cdc42 signal was detected by absorbance at 490 nm as described in materials and methods (Example 2).

[14] = molecular target: B5; assay: G-LISA on maleimide plates (FIG. 2)
Method: as §1, §3

[15] = molecular target: T1, constitutively active recombinant Rac1, …; assay: competition in Rac1: POSH G-LISA, 5 ng Rac1 (61L), POSH-GBD maleimide plate, reference PAK-GBD-GST
[16] = molecular target: T1, constitutively active recombinant Rac1, …; assay: competition in Rac1: POSH G-LISA, 5 ng Rac1 (61L), POSH-GBD maleimide plate, ROCK-GST as negative control inhibitor

B1
signal fold above background (buffer only) [1]: 8 fold | fold signal of GTPγS (active) over GDP (inactive) loaded platelet extract [2]: 8 fold | IC50 [3]: ~100 nM | loss of signal in the absence of TCA [4]: > 80%

B2
fold signal of active (GTPγS) RhoA over inactive (GDP) RhoA [5]: 7 fold | signal fold above background (buffer only) [6]: 6 fold | fold signal of GTPγS RhoA over GDP RhoA [7]: ~8 fold | loss of signal in the absence of TCA [8]: > 80%

B3
signal fold above background [9]: 6 fold

B4
signal fold above background [10]: 9 fold | signal fold above background [11]: 7 fold | loss of signal in the absence of TCA [4]: > 80% | fold signal of active (GTPγS) Rac1 over inactive (GDP) Rac1 [12]: 30 fold

B5
signal fold above background [13]: 5 fold

B6
binding result [14]: binds

B7
fold IC50 against PAK [15]: ~80 fold | IC50 [16]: 8 µM
